Results from patent US7605133 (PANACEA PHARMACEUTICALS, dated 2009).
Ends that are not written are not given here.

What was measured:
[1] = biological target: α-synuclein (recombinant, wildtype) (human, UniProt P37840 1-140); experiment: cell-based or functional assay
[2] = biological target: T1, NAC portion of α-synuclein (approx. amino acids 61-87) (human, UniProt P37840 61-87); experiment: phage display selection
T1 construct: range 61-87; also called α-synuclein 61-87 peptide

[3] = biological target: T1, NAC portion of α-synuclein (approx. …); experiment: phage display selection with the α-synuclein 121-131 and 61-87 peptides as the bait

Row | Binder | inhibition of iron-induced α-synuclein aggregation in vitro, densitometric quantification, 10-fold excess of the peptide [1] | binding result [2] | binding result [3]
1 | SLKRLPK (also called the peptide) | 38% | binds | 
2 | HLYHHKT (7-mer from phage display) |  | binds | 
3 | SLKRLPK (also: displayed on phage coat protein, also called SLKRLPK phage; not shown: phage coat protein that carries the 7-mer (New England Biolabs phage display kit); neither the protein nor any linker is) [phage containing the SLKRLPK (SEQ ID NO: 7) peptide] |  |  | binds
4 | WPFHHHR (7-mer from phage display) |  | binds | 
5 | RLRGRNQ (7-mer from phage display) |  | binds | 
6 | THIHHPS (7-mer from phage display) |  | binds | 
